According to a protein production outcome set (Wang et al. 2014):

Assay: label from the status in PepcDB records

Sequence	protein production
MLHELFSVYLKMLVLYSPFFVLSCFISLTRGHSSKERKQLAWKVAFAALVASVLLYLFGRAIFGIFGITADAFRIGAGSVLFISALGMAQGKPAVQADNVQQDVTIVPLTIPLTVGPGTIGALLVMGVSQPHWDEKLLAIVSIALASFTVGLVLYLSHGIERLLGDQGLQIVSRLMGLFVCALAAQIIFTGIRGYLLP	failed
MIPEIAGLPALEWTSSAGHASYDEAEATLTLAAASGVDWTNDSLGGEPQHGATALGFRAPAAFSLSARVLVASPRTTFDAGVLTLWADSDHWAKLCFEYSPQGEAMVVSVVTNGYSDDSNGPVVTAPWVYLRVSRVGPAWAFHSSTDGRDWSLVRLFRLDTEKPVHVGFMSQAPMGDGCEARFDAIELKEEPPAELRDGS	failed
MIMNTKERSLLGSWIIWSVAYYMYYPFISIYLSRFVEESKLSLFFVVFQAVSLPLPLIGARLSKRNRILPIIIGMLVGGIGMIMLPFSRNILEATIFMSLNYFISLSLPSYYSLMSEVGEGTITRIWSLSILPSIIMPSLGGLLAQYFGLRLLFMIGGIVLATSFLPMVNSSYNSSSQSLLNFNITIRSFLPAILILPIAMEFPYIYLVVYNYFHLTKEYVGIIATSAEILGMLLTYLASKLIFRKKYLLSLSLFLFSLTSLYFLSPTIAIFFGCWEVIVPLTLEYFSSRKTVYDFALITTMQGLGWVLGYLIDYFIPNISLLLLSSSLIAFLLALMIVFTKD	failed
MLDTVRQELNNFRSPLYRNSIYISLTSLVTAVAGFLFWSVAARLYPSSQVGVASALVSAINLTFTVSMLGLNFALIRFYPQYKERAVGSSLVLAVTASFFVSLVYGLIMGGSESFRGVFSAEFLAIFVTFSMVGTAYNILSTYAIAKRKAEHSFMQGLLFALRFVFLFFLVPLGVFGIVGSFGFGLTLGLIYGLIFIDDIKLSLDVEYLKESFRFSLGNYIASMANVAPNYLMPTLVLTMLGKEEAAYFYIAFAIGNLILFIPNAINTSFFVEGSHGLKDMKRTLKKALAFSYLYLAVATVFVWLFGGYVLELFRPEYVKGFGLLKLMVLGGFFVVPVNFSITILNIQKRVREVVGINLLKAALFLGLSYLLIPRFGIEGVGWGWIGAYSISVFMLFVRFFRKVF	failed
MKSKGRNRLLSLIICICIAFAFSSCVKNDLPYPVVRLSITGFEVNGQIGSAVINNEERTVTVDLLDSVDLKKVIVTRFDYSEEANTDLKVNTTIDLSSPKEVVLSLYQDYRWKIIANQTVERVFSVKNQVGGAVIDEKARQAIVYVNKNTMLNKITVKDLKLGPISSTVSPDFITLKDFTQEQKVNVTFKGKTEEWSLYAFITDKVVFTNSADGWTNVAWLYGEGQEDVVNGFEIREASSEEWTRVDQDIVVQNGVNFYVCVPHLKADTEYVCRALVDGTEDRGEEITFRTTAAIPLTGGTFDNWNQSGKVWNPWGSNETPFWDTGNQGATTLGDSNSVPTEDIWSGKTTGMAAKLESKFVGVGSAGKLAAGNLFVGKYVATDGTNGILNFGQSFSAYPTHLKGYYKYQPGVIDNSSIEYNYLKGRTDTCSIYIAIGDWDSPIEIRTKPSNRKLFDKNDKHVIAYAEFTSGTPVAVYKEFDLKLEYRATNRKPTYIVLVCSASKYGDFFTGASGSVLYVDEFSLEYDYDN	failed
MSVFMDLNIINSSDKNRLKHIIETAAHLGYSTVAINYVVEPLQKKQEIPNPQSISDLFDKFPVVQGKSSPIKVLNRLTIVASDASHFRPTNEYKKFDLVAVYPKTEKLFHAACMTFDVDIICIAVTEKQPFHFKRAPVNGAIDRGIFFETCYAAAIRDSITRRYTIANAICLMEICKGKNVIVSSGAERQLELRGPYDIANLGLVFSLSEGDAKAAVSTNCRSVLLHGETRATASGVIHTMKKPQILQKEEEETPAAKKARTELA	failed
LKGEPDCYALSLESSEQLTLEIPLNDSGSAGLGVSLKGNKSRETGTDLGIFIKSIIHGGAAFKDGRLRMNDQLIAVNGETLLGKSNHEAMETLRRSMSMEGNIRGMIQLVILRR	not failed
MIRKFSLIMATYGRKDEVGCFLESLMNSNYPMDKVEVIIVDQNKEIDLEPIISKYKEKIKVVHIKSNERGLALNRNKGLEIATGDIIAFPDDDCEYLVDTLNIVNNYFENEHCDLLMGRIVERNGEDSLREWPKEKIEINKNNFYTKCSSVTMFLDSKKCFVKFNDQLGAGKYFGACEDADLIYKNCKKGLKIIYNPELQIYHPHYDSNSNMDDKKIYSYGLGFGAMVKSNFDFSMLILFIKAEGYHFLKSLIYLITFKTTKSKRSWLAFKSRIKGFFEYKN	failed
MKLICSKANLLKGVNIVSKAVPTRTTMAILECILIDASANEIKLMANDMELGIETIIDGTIEERGIIALDAKIFSEIVRKLPDNDVTIETDASFKTVISCEKAKFNIIGKSGDDFSYIPYVERNESIVLSQFTLKEVIRQTIFSIADNDNNKLMTGELFEIEENKLRVVSLDGHRISIRYIEMKNHYDSKKVVVPGKTLQEISKIIPGSADEDVVIYITNNHIVFEFENTTVVSRLIEGEYFKIDQMLSSDYDTKVRINKRELLDCIDRATLLVKEGDKKPIIMNITDGNMELRINSFIGSMNEDIDIDKDGKDIMIGFNPKFFIDALRVIDEEEVNLYMVNPKAPCFIKDDEGKFIYLILPVNFNTAAN	not failed
DSVDLCIMEILKDILDLFHGGRVYIFEYDEYYRYQDCTYEVVAEGVLPEIDSLQRIPTDSLPWWRQQTLSGKPVILDSLDQLPKHAKAEYAILSRQNIKSLMITPLIAGEHVWGYMGIDLVKNYRNWNNEDFQWLSSLANIISICIELRKAKDEAVRERSFLRNLFRFMPMGYIRMTMVRDAAGLP	failed
LEAPRDLEAKEVTPRTALLTWTEPPVRPAGYLLSFHTPGGQTQEILLPGGITSHQLLGLFPSTSYNARLQAMWGQSLLPPVSTSFTTGGLRI	not failed
MSLNMFWFLPTHGDGHYLGTEEGSRPVDHGYLQQIAQAADRLGYTGVLIPTGRSCEDAWLVAASMIPVTQRLKFLVALRPSVTSPTVAARQAATLDRLSNGRALFNLVTGSDPQELAGDGVFLDHSERYEASAEFTQVWRRLLQRETVDFNGKHIHVRGAKLLFPAIQQPYPPLYFGGSSDVAQELAAEQVDLYLTWGEPPELVKEKIEQVRAKAAAHGRKIRFGIRLHVIVRETNDEAWQAAERLISHLDDETIAKAQAAFARTDSVGQQRMAALHNGKRDNLEISPNLWAGVGLVRGGAGTALVGDGPTVAARINEYAALGIDSFVLSGYPHLEEAYRVGELLFPLLDVAIPEIPQPQPLNPQGEAVANDFIPRKVAQS	not failed
MVYVFQGIGGYIILFLLMIGEGIGLPLPSEVIMPLVGYYSYLGSISLYLGVIVGTLGSLVGSIIAYIIGYKLGLAFLKRYGKYILIDEGKIEALHNWFLRYGNMAVFGFRFIPGLRALISYPAGIGQMKILKFLGFTFLGHTIWDIVLALIGYQLANQINFVITQAEKLGNYLFILVIVIIVIYILWRIFWKRK	failed
MKFVKASLYLSIALAISACGEQVSVESHLENAKSYLNENKVNESIIELKNAIRADTKNAEARFLLGQIYLSLGDGLAAVKELERAQSLKYPDNKVLPLLARAYILTDSDSDVIALSTAAKGLAAEERSQYLAYQTLAALRSEQPDLAKQSVELAQSIAQQSLYSMLASAYLQLSENKYDEVKTLISRILTIEAKQVDALMLQGQVAMVTEEYQLAVDSFKQYMELQPRFSMVELLLANALLKAGHDEEAEQHADAILAKVNNQPFANYIKAMVRFQAKDFDKASEHAEAALSADFNQFNLKLVAGASAFYLKNWQQSYHHLSAIVKYLPNDHQARRMLAVTQLELGLIDEISATIGDFDGNDEVNSQFLSSLSYKLLELGATTEAKKLLAQNGQNSSKNAAHNARQGILKLMMNDPSGIENLQDAVKLNPELIEAELAIAFSALQRGDIAKANAIAEKWQKQYPDKASSFNLLASIAIKEGKYDKAEQALKKSLSLEQDNFFALTEQLRIARKQENIPLSKQRADYLITIAPTNNKVLRQYFGVYRNEMALAKLTAAYELDKTDINKAILLSEAMVSLGQLKQAESILVSIADTAKLPKRYWQLLLLTYKKQKNFEKIRPTLEKWLKENPYHIEAVVLLTDFYASQRNYERALTVIKRGLDNHKDNLVLQLVQMQLLLNNKQISPAKSLYKIIENKNINDALKQGLLGRIYLLEEDYVQALPKLTVFYQTYPSSQNAIYLAGAHLGNKDNAKAVKVLEHYLTIDANNNRIETMLAGIYLENDSDKAIAVYDDVVKKQPKNVVAHNNLAWLYLEQDNISKALEHAEKALELAPQIANIVDTYAKVLLGSGDKRAALQYASKASEIAKGKDVDIQLNYVEALIANNRINEAKDLLAKVATATDEQKNKKSKLLAQL	failed
